In article PMC10602139, “Architecture and rearrangements of a sperm-specific Na^+/H^+ exchanger” (Research Square, 2023):

B1: sp9C1 truncated at amino acid position 657, eGFP fusion (domain or fragment, Strongylocentrotus purpuratus, UniProt A3RL54 30-657, looked up)
chain: SSGGSGHTPTTQATHADDHDLTTHNGTEEHDDGHDDGHDDLHAHAPKVIVFISGSCLFGAISRSLFKKLPIPYTVVLLILGAILGVVASNVPLVEEHTRDVAHMDPHVLLQIFLPVLIFESAFAMDVHTFMRSFSQVCILALFGLVVASVLTAVLAMNLFNYNWNFSEAMMFGAIMSATDPVAVVALLKDLGASKQLGTIIEGESLLNDGCAIVIFNVFMKMVFFPQLTSTVGQNVLYFLQVAVAGPLWGYAVAKVTVFFLSHIFNDALVEITITLAATYLTYYIGDIWLEVSGVLAVVVLGLIVNAEKTSISPEVEVFLHRFWEMLAYLANTLIFMMVGVVVTQKALVAVDKMDWFYLIILYLAITIIRGMVISLFSPILSRIGYGLTWRNAVIMTWGGLRGAVGLALALVVENLAGNDVIGSKFLFHTAGIVVLTLVINATTIQTLLRILGMSDISIPKRLAMAGAVRRIHEGQNRTLNMLKSDRFLADADWDIATAACEISDPYSALSDDENAPADELTLGERKSVCPGCKAMVPNEPSPREFADMMEEARLRMLKAEKISYWKQFEHGMLAREALRLLVQHAEVAADEKDQFILVDDLKKSWQIKGIYPWLKRKLEDLISEKKI
notes: the ARD is partly deleted; source: HEK293F, transiently transfected; not shown: mEGFP, C-terminal, kept; Twinstrep, C-terminal, kept
B2: sp9C1 truncated at amino acid position 950, eGFP fusion (domain or fragment, Strongylocentrotus purpuratus, UniProt A3RL54 30-950, looked up)
chain: SSGGSGHTPTTQATHADDHDLTTHNGTEEHDDGHDDGHDDLHAHAPKVIVFISGSCLFGAISRSLFKKLPIPYTVVLLILGAILGVVASNVPLVEEHTRDVAHMDPHVLLQIFLPVLIFESAFAMDVHTFMRSFSQVCILALFGLVVASVLTAVLAMNLFNYNWNFSEAMMFGAIMSATDPVAVVALLKDLGASKQLGTIIEGESLLNDGCAIVIFNVFMKMVFFPQLTSTVGQNVLYFLQVAVAGPLWGYAVAKVTVFFLSHIFNDALVEITITLAATYLTYYIGDIWLEVSGVLAVVVLGLIVNAEKTSISPEVEVFLHRFWEMLAYLANTLIFMMVGVVVTQKALVAVDKMDWFYLIILYLAITIIRGMVISLFSPILSRIGYGLTWRNAVIMTWGGLRGAVGLALALVVENLAGNDVIGSKFLFHTAGIVVLTLVINATTIQTLLRILGMSDISIPKRLAMAGAVRRIHEGQNRTLNMLKSDRFLADADWDIATAACEISDPYSALSDDENAPADELTLGERKSVCPGCKAMVPNEPSPREFADMMEEARLRMLKAEKISYWKQFEHGMLAREALRLLVQHAEVAADEKDQFILVDDLKKSWQIKGIYPWLKRKLEDLISEKKIAAIPMPKYKLGKLMYKICHHMAFEVTINIAIVLNIVPIIMEFVVQDKMASVSTMAAPGSTVSSEPSSLQKIEDALRISNYVFFVIYAIEAIVKILGLGRHYIVSHWNKFDAFILVVALVDIIIAETLLKGSITINLSSIKVVKLFRLLRGLRMLRLTKALIPKLILVVNGKINNQLSLGYDVGKGYIIGEEEVGKIIDRMVDNKKILRELKHISETGRLQVVKELGLLQREHPGIAVSVKTRQAIRTILNHSRETIHELQGAGLLDEMEAHKLELTVEIKMKRLMNAPSSIPP
notes: SLC9C1, Strongylocentrotus purpuratus, truncated at amino acid position 950; the CNBD, βR2 and the C-terminal tail are deleted; also called 950 construct; source: HEK293F, transiently transfected; not shown: mEGFP, C-terminal, kept; Twinstrep, C-terminal, kept
B3: sp9C1-eGFP, full length (FSEC sample) (natural protein, Strongylocentrotus purpuratus, UniProt A3RL54 30-1325, looked up)
chain: SSGGSGHTPTTQATHADDHDLTTHNGTEEHDDGHDDGHDDLHAHAPKVIVFISGSCLFGAISRSLFKKLPIPYTVVLLILGAILGVVASNVPLVEEHTRDVAHMDPHVLLQIFLPVLIFESAFAMDVHTFMRSFSQVCILALFGLVVASVLTAVLAMNLFNYNWNFSEAMMFGAIMSATDPVAVVALLKDLGASKQLGTIIEGESLLNDGCAIVIFNVFMKMVFFPQLTSTVGQNVLYFLQVAVAGPLWGYAVAKVTVFFLSHIFNDALVEITITLAATYLTYYIGDIWLEVSGVLAVVVLGLIVNAEKTSISPEVEVFLHRFWEMLAYLANTLIFMMVGVVVTQKALVAVDKMDWFYLIILYLAITIIRGMVISLFSPILSRIGYGLTWRNAVIMTWGGLRGAVGLALALVVENLAGNDVIGSKFLFHTAGIVVLTLVINATTIQTLLRILGMSDISIPKRLAMAGAVRRIHEGQNRTLNMLKSDRFLADADWDIATAACEISDPYSALSDDENAPADELTLGERKSVCPGCKAMVPNEPSPREFADMMEEARLRMLKAEKISYWKQFEHGMLAREALRLLVQHAEVAADEKDQFILVDDLKKSWQIKGIYPWLKRKLEDLISEKKIAAIPMPKYKLGKLMYKICHHMAFEVTINIAIVLNIVPIIMEFVVQDKMASVSTMAAPGSTVSSEPSSLQKIEDALRISNYVFFVIYAIEAIVKILGLGRHYIVSHWNKFDAFILVVALVDIIIAETLLKGSITINLSSIKVVKLFRLLRGLRMLRLTKALIPKLILVVNGKINNQLSLGYDVGKGYIIGEEEVGKIIDRMVDNKKILRELKHISETGRLQVVKELGLLQREHPGIAVSVKTRQAIRTILNHSRETIHELQGAGLLDEMEAHKLELTVEIKMKRLMNAPSSIPPPPPENLLKNVSWLAGDMKLIDFIKARASLLHFDYGEVIVREGDESDGLFLIVSGLVKLYGKSAFLDHDNPPVTAGSEENEVFEDYLTVGNVIGEMGVLTKKPRNATVTCETTVQVYFITAEDMNIAIDTFTLYPSLEYRLWRVVAIRIATPLIMEQMAFQGWTQEKVKLHLERGYLVDLAESHFQFNIDATLEDVILINGTAYNAHTREEIRSPCLISRTVHKLTFQYTATEEPRLFVVRNAEYNGPILDGRLDVDSKRSLISITEISSNMCLKHAAELRQKNSKVMLSRKSSGAAAKEEEDCIPNTSDVEQAAGVSPSVPTKTTPKPKSFLPSLGLSMSKERVNGEAVEESPVKTKQGEETPETEEGAAPRVNV
notes: SLC9C1 (sperm-specific Na+/H+ exchanger), Strongylocentrotus purpuratus, full length; followed by a PreScission site and mEGFP-Twinstrep; A PreScission protease site lies between SLC9C1 and the mEGFP-Twinstrep tag; also called FL; FL-sp9C1; source: HEK293F, transiently transfected; not shown: mEGFP, C-terminal, kept; Twinstrep, C-terminal, kept
B4: sp9C1 Y1035C mutant, eGFP fusion (natural protein, Strongylocentrotus purpuratus, UniProt A3RL54 30-1325, looked up)
chain: SSGGSGHTPTTQATHADDHDLTTHNGTEEHDDGHDDGHDDLHAHAPKVIVFISGSCLFGAISRSLFKKLPIPYTVVLLILGAILGVVASNVPLVEEHTRDVAHMDPHVLLQIFLPVLIFESAFAMDVHTFMRSFSQVCILALFGLVVASVLTAVLAMNLFNYNWNFSEAMMFGAIMSATDPVAVVALLKDLGASKQLGTIIEGESLLNDGCAIVIFNVFMKMVFFPQLTSTVGQNVLYFLQVAVAGPLWGYAVAKVTVFFLSHIFNDALVEITITLAATYLTYYIGDIWLEVSGVLAVVVLGLIVNAEKTSISPEVEVFLHRFWEMLAYLANTLIFMMVGVVVTQKALVAVDKMDWFYLIILYLAITIIRGMVISLFSPILSRIGYGLTWRNAVIMTWGGLRGAVGLALALVVENLAGNDVIGSKFLFHTAGIVVLTLVINATTIQTLLRILGMSDISIPKRLAMAGAVRRIHEGQNRTLNMLKSDRFLADADWDIATAACEISDPYSALSDDENAPADELTLGERKSVCPGCKAMVPNEPSPREFADMMEEARLRMLKAEKISYWKQFEHGMLAREALRLLVQHAEVAADEKDQFILVDDLKKSWQIKGIYPWLKRKLEDLISEKKIAAIPMPKYKLGKLMYKICHHMAFEVTINIAIVLNIVPIIMEFVVQDKMASVSTMAAPGSTVSSEPSSLQKIEDALRISNYVFFVIYAIEAIVKILGLGRHYIVSHWNKFDAFILVVALVDIIIAETLLKGSITINLSSIKVVKLFRLLRGLRMLRLTKALIPKLILVVNGKINNQLSLGYDVGKGYIIGEEEVGKIIDRMVDNKKILRELKHISETGRLQVVKELGLLQREHPGIAVSVKTRQAIRTILNHSRETIHELQGAGLLDEMEAHKLELTVEIKMKRLMNAPSSIPPPPPENLLKNVSWLAGDMKLIDFIKARASLLHFDYGEVIVREGDESDGLFLIVSGLVKLYGKSAFLDHDNPPVTAGSEENEVFEDCLTVGNVIGEMGVLTKKPRNATVTCETTVQVYFITAEDMNIAIDTFTLYPSLEYRLWRVVAIRIATPLIMEQMAFQGWTQEKVKLHLERGYLVDLAESHFQFNIDATLEDVILINGTAYNAHTREEIRSPCLISRTVHKLTFQYTATEEPRLFVVRNAEYNGPILDGRLDVDSKRSLISITEISSNMCLKHAAELRQKNSKVMLSRKSSGAAAKEEEDCIPNTSDVEQAAGVSPSVPTKTTPKPKSFLPSLGLSMSKERVNGEAVEESPVKTKQGEETPETEEGAAPRVNV
notes: SLC9C1, Strongylocentrotus purpuratus, with Y1035C; source: HEK293F, transiently transfected; not shown: mEGFP, C-terminal, kept; Twinstrep, C-terminal, kept
B5: sp9C1 K880A mutant, eGFP fusion (natural protein, Strongylocentrotus purpuratus, UniProt A3RL54 30-1325, looked up)
chain: SSGGSGHTPTTQATHADDHDLTTHNGTEEHDDGHDDGHDDLHAHAPKVIVFISGSCLFGAISRSLFKKLPIPYTVVLLILGAILGVVASNVPLVEEHTRDVAHMDPHVLLQIFLPVLIFESAFAMDVHTFMRSFSQVCILALFGLVVASVLTAVLAMNLFNYNWNFSEAMMFGAIMSATDPVAVVALLKDLGASKQLGTIIEGESLLNDGCAIVIFNVFMKMVFFPQLTSTVGQNVLYFLQVAVAGPLWGYAVAKVTVFFLSHIFNDALVEITITLAATYLTYYIGDIWLEVSGVLAVVVLGLIVNAEKTSISPEVEVFLHRFWEMLAYLANTLIFMMVGVVVTQKALVAVDKMDWFYLIILYLAITIIRGMVISLFSPILSRIGYGLTWRNAVIMTWGGLRGAVGLALALVVENLAGNDVIGSKFLFHTAGIVVLTLVINATTIQTLLRILGMSDISIPKRLAMAGAVRRIHEGQNRTLNMLKSDRFLADADWDIATAACEISDPYSALSDDENAPADELTLGERKSVCPGCKAMVPNEPSPREFADMMEEARLRMLKAEKISYWKQFEHGMLAREALRLLVQHAEVAADEKDQFILVDDLKKSWQIKGIYPWLKRKLEDLISEKKIAAIPMPKYKLGKLMYKICHHMAFEVTINIAIVLNIVPIIMEFVVQDKMASVSTMAAPGSTVSSEPSSLQKIEDALRISNYVFFVIYAIEAIVKILGLGRHYIVSHWNKFDAFILVVALVDIIIAETLLKGSITINLSSIKVVKLFRLLRGLRMLRLTKALIPKLILVVNGKINNQLSLGYDVGKGYIIGEEEVGKIIDRMVDNKKILRELKHISETGRLQVVAELGLLQREHPGIAVSVKTRQAIRTILNHSRETIHELQGAGLLDEMEAHKLELTVEIKMKRLMNAPSSIPPPPPENLLKNVSWLAGDMKLIDFIKARASLLHFDYGEVIVREGDESDGLFLIVSGLVKLYGKSAFLDHDNPPVTAGSEENEVFEDYLTVGNVIGEMGVLTKKPRNATVTCETTVQVYFITAEDMNIAIDTFTLYPSLEYRLWRVVAIRIATPLIMEQMAFQGWTQEKVKLHLERGYLVDLAESHFQFNIDATLEDVILINGTAYNAHTREEIRSPCLISRTVHKLTFQYTATEEPRLFVVRNAEYNGPILDGRLDVDSKRSLISITEISSNMCLKHAAELRQKNSKVMLSRKSSGAAAKEEEDCIPNTSDVEQAAGVSPSVPTKTTPKPKSFLPSLGLSMSKERVNGEAVEESPVKTKQGEETPETEEGAAPRVNV
notes: SLC9C1, Strongylocentrotus purpuratus, with K880A; also called R880A (as printed once); source: HEK293F, transiently transfected; not shown: mEGFP, C-terminal, kept; Twinstrep, C-terminal, kept
B6: sp9C1 truncated at amino acid position 494, eGFP fusion (domain or fragment, Strongylocentrotus purpuratus, UniProt A3RL54 30-494, looked up)
chain: SSGGSGHTPTTQATHADDHDLTTHNGTEEHDDGHDDGHDDLHAHAPKVIVFISGSCLFGAISRSLFKKLPIPYTVVLLILGAILGVVASNVPLVEEHTRDVAHMDPHVLLQIFLPVLIFESAFAMDVHTFMRSFSQVCILALFGLVVASVLTAVLAMNLFNYNWNFSEAMMFGAIMSATDPVAVVALLKDLGASKQLGTIIEGESLLNDGCAIVIFNVFMKMVFFPQLTSTVGQNVLYFLQVAVAGPLWGYAVAKVTVFFLSHIFNDALVEITITLAATYLTYYIGDIWLEVSGVLAVVVLGLIVNAEKTSISPEVEVFLHRFWEMLAYLANTLIFMMVGVVVTQKALVAVDKMDWFYLIILYLAITIIRGMVISLFSPILSRIGYGLTWRNAVIMTWGGLRGAVGLALALVVENLAGNDVIGSKFLFHTAGIVVLTLVINATTIQTLLRILGMSDISIPKRLAM
notes: the ARD is deleted, the ion-exchange domain (ED) remains; source: HEK293F, transiently transfected; not shown: mEGFP, C-terminal, kept; Twinstrep, C-terminal, kept

What was measured:
[1] = biological target: the molecule itself; experiment: SEC; FSEC of eGFP fusion constructs affinity purified in digitonin micelles; Superose 6 10/300, GFP fluorescence detected
[2] = biological target: the molecule itself; experiment: SEC; FSEC, thermal disassembly: protein diluted 200-fold into destabilizing buffer pH 6 without or with cAMP (up to 5 mM), heated 10 min to the desired temperature; ratio of monomer to dimer species (ρ) against temperature; dimer to monomers

Protein	stoichiometry N [1]	binding result [2]	further results
B1	2	–	–
B2	2	–	–
B3	2	–	ρsat (saturating ratio of monomer to dimer species), 5 mM cAMP [2]: 2.4; ρsat (saturating ratio of monomer to dimer species), cAMP-free [2]: ~0.9
B4	–	binds	–
B5	–	binds	–
B6	2	–	–
